In article PMC2756588:

T1: Lsb1, P53281
T1 sequence (P53281 45-122, looked up): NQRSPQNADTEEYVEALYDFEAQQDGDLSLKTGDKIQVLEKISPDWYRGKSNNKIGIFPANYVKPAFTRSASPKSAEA

T2: Hof1, Q05080
T2 sequence (Q05080 590-669, looked up): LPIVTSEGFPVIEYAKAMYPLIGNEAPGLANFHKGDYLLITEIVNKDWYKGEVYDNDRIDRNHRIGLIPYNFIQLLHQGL

T3: Nbp2, Q12163
T3 sequence (Q12163 103-180, looked up): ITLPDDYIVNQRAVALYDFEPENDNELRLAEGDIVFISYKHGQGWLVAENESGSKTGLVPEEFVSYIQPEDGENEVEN

T4: Sla1-3, P32790
T4 sequence (P32790 344-424, looked up): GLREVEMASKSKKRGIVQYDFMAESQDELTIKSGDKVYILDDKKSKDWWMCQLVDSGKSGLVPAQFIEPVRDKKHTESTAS

T5: Cyk3, Q07533
T5 sequence (Q07533 1-83, looked up): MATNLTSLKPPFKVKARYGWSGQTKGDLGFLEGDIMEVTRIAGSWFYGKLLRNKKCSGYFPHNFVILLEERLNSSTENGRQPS

T6: Pin3, Q06449
T6 sequence (Q06449 53-122, looked up): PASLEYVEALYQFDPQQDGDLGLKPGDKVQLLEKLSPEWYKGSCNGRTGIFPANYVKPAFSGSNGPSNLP

T7: Bbc1, P47068
T7 sequence (P47068 1-78, looked up): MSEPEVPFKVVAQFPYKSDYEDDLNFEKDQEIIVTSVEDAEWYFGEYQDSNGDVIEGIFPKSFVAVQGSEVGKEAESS

T8: Hse1, P38753
T8 sequence (P38753 208-285, looked up): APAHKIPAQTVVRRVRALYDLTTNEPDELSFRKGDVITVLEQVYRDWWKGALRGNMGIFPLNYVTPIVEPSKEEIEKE

T9: Cdc25, P04821
T9 sequence (P04821 50-136, looked up): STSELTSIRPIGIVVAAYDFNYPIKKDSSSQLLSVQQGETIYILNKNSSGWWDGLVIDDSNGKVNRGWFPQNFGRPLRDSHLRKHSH

T10: Boi2, P39969
T10 sequence (P39969 32-116, looked up): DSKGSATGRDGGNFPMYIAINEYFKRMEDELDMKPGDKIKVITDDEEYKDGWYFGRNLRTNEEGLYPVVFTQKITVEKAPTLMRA

T11: Lsb4, P32793
T11 sequence (P32793 402-468, looked up): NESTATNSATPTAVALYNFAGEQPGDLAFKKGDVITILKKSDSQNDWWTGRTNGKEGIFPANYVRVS

T12: Lsb3, P43603
T12 sequence (P43603 385-451, looked up): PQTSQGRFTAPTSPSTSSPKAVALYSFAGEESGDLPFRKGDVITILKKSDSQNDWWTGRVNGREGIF

T13: Fus1, P11710
T13 sequence (P11710 432-512, looked up): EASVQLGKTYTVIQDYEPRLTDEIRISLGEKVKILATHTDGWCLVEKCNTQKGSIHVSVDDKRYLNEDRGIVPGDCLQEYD

T14: Abp1, P15891
T14 sequence (P15891 535-592, looked up): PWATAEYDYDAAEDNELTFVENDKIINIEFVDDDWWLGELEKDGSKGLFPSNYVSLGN

T15: Bzz1-1, P38822
T15 sequence (P38822 478-572, looked up): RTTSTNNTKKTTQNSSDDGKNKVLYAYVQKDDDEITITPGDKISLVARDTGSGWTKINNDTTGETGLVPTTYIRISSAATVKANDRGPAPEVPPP

T16: Myo5, Q04439
T16 sequence (Q04439 1072-1160, looked up): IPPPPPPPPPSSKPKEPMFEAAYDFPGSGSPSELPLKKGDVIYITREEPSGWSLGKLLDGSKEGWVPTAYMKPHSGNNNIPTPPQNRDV

T17: Pex13, P80667
T17 sequence (P80667 295-386, looked up): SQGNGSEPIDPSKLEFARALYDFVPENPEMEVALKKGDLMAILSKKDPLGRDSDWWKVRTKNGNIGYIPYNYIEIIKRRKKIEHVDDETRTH

T18: Bzz1-2, P38822
T18 sequence (P38822 568-633, looked up): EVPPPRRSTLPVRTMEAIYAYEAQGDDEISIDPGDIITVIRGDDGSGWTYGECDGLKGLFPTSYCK

T19: Bud14, P27637
T19 sequence (P27637 247-328, looked up): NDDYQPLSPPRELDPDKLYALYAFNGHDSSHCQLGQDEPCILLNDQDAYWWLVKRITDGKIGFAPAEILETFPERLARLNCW

T20: Boi1, P38041
T20 sequence (P38041 1-86, looked up): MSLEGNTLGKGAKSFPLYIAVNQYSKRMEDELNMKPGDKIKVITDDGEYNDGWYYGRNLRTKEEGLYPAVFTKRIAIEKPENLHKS

T21: Sla1-2, P32790
T21 sequence (P32790 60-140, looked up): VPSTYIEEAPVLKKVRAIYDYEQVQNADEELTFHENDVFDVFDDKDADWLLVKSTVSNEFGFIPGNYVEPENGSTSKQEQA

B1: unnamed (peptide)
chain: VAPPPLPNRQLPNLD
B2: unnamed (peptide)
chain: SSTPTTPERPKRKSG
B3: unnamed (peptide)
chain: AERNYAPRLPRRETS
B4: unnamed (peptide)
chain: ANNQGPPNLPARDKS
B5: unnamed (peptide)
chain: EVTPKVPERPSRRKT
B6: unnamed (peptide)
chain: TPTSGPPLLPPRNTM

How the values were obtained:
Test in all cases: SPOT array
[1] = molecular target: Sho1, P40073; conditions: median of control spots 1148
Sho1, P40073, sequence (P40073 287-367): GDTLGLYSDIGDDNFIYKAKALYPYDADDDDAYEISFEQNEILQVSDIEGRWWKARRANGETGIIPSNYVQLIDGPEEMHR

[2] = molecular target: T1, Lsb1, P53281; conditions: median of control spots 388
[3] = molecular target: T2, Hof1, Q05080; conditions: median of control spots 4086
[4] = molecular target: T3, Nbp2, Q12163; conditions: median of control spots 357
[5] = molecular target: T4, Sla1-3, P32790; conditions: median of control spots 5475
[6] = molecular target: T5, Cyk3, Q07533; conditions: median of control spots 1451
[7] = molecular target: T6, Pin3, Q06449; conditions: median of control spots 2171
[8] = molecular target: T7, Bbc1, P47068; conditions: median of control spots 796
[9] = molecular target: T8, Hse1, P38753; conditions: median of control spots 1727
[10] = molecular target: Rvs167, P39743; conditions: median of control spots 2707
Rvs167, P39743, sequence (P39743 419-482): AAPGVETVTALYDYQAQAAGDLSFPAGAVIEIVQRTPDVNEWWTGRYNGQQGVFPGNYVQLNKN

[11] = molecular target: T9, Cdc25, P04821; conditions: median of control spots 969
[12] = molecular target: T10, Boi2, P39969; conditions: median of control spots 1161
[13] = molecular target: T11, Lsb4, P32793; conditions: median of control spots 397
[14] = molecular target: T12, Lsb3, P43603; conditions: median of control spots 406
[15] = molecular target: T13, Fus1, P11710; conditions: median of control spots 1200
[16] = molecular target: T14, Abp1, P15891; conditions: median of control spots 935
[17] = molecular target: Bem1-2, P29366; conditions: median of control spots 4347
Bem1-2, P29366, sequence (P29366 139-227): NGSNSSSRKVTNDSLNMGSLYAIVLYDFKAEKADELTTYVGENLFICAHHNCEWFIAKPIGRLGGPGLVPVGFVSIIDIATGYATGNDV

[18] = molecular target: GST; conditions: median of control spots 978
[19] = molecular target: T15, Bzz1-1, P38822; conditions: median of control spots 4446
[20] = molecular target: T16, Myo5, Q04439; conditions: median of control spots 471
[21] = molecular target: T17, Pex13, P80667; conditions: median of control spots 1341
[22] = molecular target: Myo3, P36006; conditions: median of control spots 468
[23] = molecular target: Bem1-1, P29366; conditions: median of control spots 4282
Bem1-1, P29366, sequence (P29366 55-141): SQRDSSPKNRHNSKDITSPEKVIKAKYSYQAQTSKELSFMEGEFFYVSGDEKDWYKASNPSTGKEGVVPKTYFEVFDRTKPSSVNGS

[24] = molecular target: T18, Bzz1-2, P38822; conditions: median of control spots 4538
[25] = molecular target: T19, Bud14, P27637; conditions: median of control spots 956
[26] = molecular target: T20, Boi1, P38041; conditions: median of control spots 1162
[27] = molecular target: T21, Sla1-2, P32790; conditions: median of control spots 712

| Binder | SPOT intensity [1] | SPOT intensity [2] | SPOT intensity [3] | SPOT intensity [4] | SPOT intensity [5] | SPOT intensity [6] | SPOT intensity [7] | SPOT intensity [8] | SPOT intensity [9] | SPOT intensity [10] | SPOT intensity [11] | SPOT intensity [12] | SPOT intensity [13] | SPOT intensity [14] | SPOT intensity [15] | SPOT intensity [16] | SPOT intensity [17] | SPOT intensity [18] | SPOT intensity [19] | SPOT intensity [20] | other results |
| --- | --- | --- | --- | --- | --- | --- | --- | --- | --- | --- | --- | --- | --- | --- | --- | --- | --- | --- | --- | --- | --- |
| B1 | 0 | 1380 | 1330 | 0 | 0 | 2 | 5 | 0 | 0 | 5720 | 0 | 0 | 813 | 743 | 0 | 0 | 0 | 0 | 2 | 59 | SPOT intensity [21]: 563; SPOT intensity [22]: 112; SPOT intensity [23]: 2; SPOT intensity [24]: 0; SPOT intensity [25]: 0; SPOT intensity [26]: 0; SPOT intensity [27]: 0 |
| B2 | 0 | 316 | 0 | 0 | 0 | 1 | 6 | 559 | 0 | 0 | 1 | 2 | 363 | 442 | 0 | 22 | 0 | 2 | 1 | 0 | SPOT intensity [21]: 8; SPOT intensity [22]: 0; SPOT intensity [23]: 1; SPOT intensity [24]: 1; SPOT intensity [25]: 0; SPOT intensity [26]: 0; SPOT intensity [27]: 0 |
| B3 | 32 | 352 | 0 | 0 | 5 | 0 | 18 | 18 | 4 | 306 | 11 | 0 | 137 | 371 | 0 | 50 | 0 | 0 | 0 | 0 | SPOT intensity [21]: 76; SPOT intensity [22]: 0; SPOT intensity [23]: 1; SPOT intensity [24]: 1; SPOT intensity [25]: 12; SPOT intensity [26]: 0; SPOT intensity [27]: 0 |
| B4 | 0 | 461 | 0 | 0 | 0 | 0 | 0 | 0 | 0 | 3320 | 0 | 0 | 642 | 478 | 0 | 0 | 0 | 1 | 2 | 0 | SPOT intensity [21]: 229; SPOT intensity [22]: 0; SPOT intensity [23]: 0; SPOT intensity [24]: 0; SPOT intensity [25]: 0; SPOT intensity [26]: 4; SPOT intensity [27]: 1 |
| B5 | 23 | 824 | 28 | 0 | 15 | 1 | 25 | 1070 | 245 | 129 | 10 | 2 | 317 | 271 | 0 | 156 | 13 | 0 | 1 | 0 | SPOT intensity [21]: 171; SPOT intensity [22]: 0; SPOT intensity [23]: 0; SPOT intensity [24]: 1; SPOT intensity [25]: 3; SPOT intensity [26]: 0; SPOT intensity [27]: 0 |
| B6 | 21 | 456 | 3 | 0 | 0 | 1 | 66 | 0 | 4 | 2940 | 0 | 0 | 356 | 345 | 1 | 25 | 0 | 0 | 0 | 45 | SPOT intensity [21]: 813; SPOT intensity [22]: 97; SPOT intensity [23]: 0; SPOT intensity [24]: 0; SPOT intensity [25]: 0; SPOT intensity [26]: 2; SPOT intensity [27]: 1 |
